94 variants from the supplement of paper PMC10567573 can be followed below.

B1: ETS1 (parent)
chain: YVRDRADLNKDKPVIPAAALAGYT
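Note: lentivirally expressed fusions sorted by FACS into six bins by GFP to DsRed ratio, PSI derived from sequencing read proportions per bin multiplied by bin number.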

Variants of B1 are the subject of this data set. Nature of the data set: protein stability index of a GFP-peptide fusion (GPS, HEK-293T) (PSI 1-6); higher = more stable. The settings on record: c terminus: a fixed tail appended.
For the variant YVRDRADLNKDKPVKPAAALAGYT [I15K], the protein stability index was found to be 2.26.

Consider YVRDRADLNKDKPVRPAAALAGYT [I15R], for which the protein stability index was 1.86. The result for YVRDRADLNKDKPVTPAAALAGYT [I15T] reads 1.91; that for YVRDRADLNKDKPVEPAAALAGYT [I15E], 1.77; that for YVRDRADLNKDKPVCPAAALAGYT [I15C], 2.84.

Regarding YVRDRADLNKDKPVSPAAALAGYT [I15S], the protein stability index stood at 2.36. With YVRDRADLNKDKPVPPAAALAGYT [I15P], the protein stability index was found to be 2.63. With YVRDRADLNKDKPVDPAAALAGYT [I15D], the protein stability index came to 1.93. For the variant YVRDRADLNKDKPVVPAAALAGYT [I15V], the protein stability index came out at 1.56. The result for YVRDRADLNKDKPVFPAAALAGYT [I15F] reads 1.8. As for YVRDRADLNKDKPVYPAAALAGYT [I15Y], the protein stability index turned out to be 1.95. For YVRDRADLNKDKPVLPAAALAGYT [I15L] the value was 2.16. Regarding YVRDRADLNKDKPVIPAFALAGYT [A18F], the protein stability index worked out at 1.83. For YVRDRADLNKDKPVIPACALAGYT [A18C] the value was 2.33; for YVRDRADLNKDKPVIPAEALAGYT [A18E], 1.88. YVRDRADLNKDKPVIPAGALAGYT [A18G]: the protein stability index amounted to 2.35. As for YVRDRADLNKDKPVIPADALAGYT [A18D], the protein stability index came out at 2.21.

On to YVRDRADLNKDKPVIPAHALAGYT [A18H], for which the protein stability index is 2.18. YVRDRADLNKDKPGIPAAALAGYT [V14G]: the protein stability index worked out at 2.18. The result for YVRDRADLNKDKPEIPAAALAGYT [V14E] reads 1.97. As to YVRDRADLNKDKPTIPAAALAGYT [V14T], the protein stability index is 2.66.

For the variant YVRDRADLNKDKPWIPAAALAGYT [V14W], the protein stability index turned out to be 2.4. The result for YVRDRADLNKDKPSIPAAALAGYT [V14S] reads 2.84. Consider YVRDRADLNKDKPMIPAAALAGYT [V14M], for which the protein stability index was found to be 2.75. For the variant YVRDRADLNKDKPHIPAAALAGYT [V14H], the protein stability index was found to be 2.23. Turning to YVRDRADLNKDKPQIPAAALAGYT [V14Q], the protein stability index came out at 1.4. The result for YVRDRADLNKDKPKIPAAALAGYT [V14K] reads 2.34; that for YVRDRADLNKDKPYIPAAALAGYT [V14Y], 1.8; that for YVRDRADLNKDKPAIPAAALAGYT [V14A], 1.73. In the case of YVRDRADLNKDKPLIPAAALAGYT [V14L], the protein stability index stood at 2.79. Take YVRDRADLNKDKPDIPAAALAGYT [V14D]: the protein stability index turned out to be 2.17. For YVRDRADLNKDKPNIPAAALAGYT [V14N] the value was 2.34; for YVRDRADLNKDKPIIPAAALAGYT [V14I], 1.63; for YVRDRADLNKDKPCIPAAALAGYT [V14C], 2.54. Consider YVRDRADLNKDKPPIPAAALAGYT [V14P], for which the protein stability index is 1.92. Consider YVRDRADLNKDKPRIPAAALAGYT [V14R], for which the protein stability index was determined as 2.67. Take YVRDRADLNKDKPFIPAAALAGYT [V14F]: the protein stability index was determined as 2.99. For YVRDRADLNKVKPVIPAAALAGYT [D11V] the value was 3.03; for YVRDRADLNKRKPVIPAAALAGYT [D11R], 2.17; for YVRDRADLNKCKPVIPAAALAGYT [D11C], 2.46. In the case of YVRDRADLNKFKPVIPAAALAGYT [D11F], the protein stability index came to 2.42. In the case of YVRDRADLNKNKPVIPAAALAGYT [D11N], the protein stability index amounted to 2.91.

Regarding YVRDRADLNKYKPVIPAAALAGYT [D11Y], the protein stability index is 2.59. Turning to YVRDRADLNKGKPVIPAAALAGYT [D11G], the protein stability index came to 3.03.

With YVRDRADLNKMKPVIPAAALAGYT [D11M], the protein stability index was 2.31. For the variant YVRDRADLNKLKPVIPAAALAGYT [D11L], the protein stability index turned out to be 4.14. In the case of YVRDRADLNKTKPVIPAAALAGYT [D11T], the protein stability index was determined as 2.16.

Take YVRDRADLNKAKPVIPAAALAGYT [D11A]: the protein stability index stood at 2.28. On to YVRDRADLNKSKPVIPAAALAGYT [D11S], for which the protein stability index came to 2.9.

YVRDRADLNKKKPVIPAAALAGYT [D11K]: the protein stability index came out at 1.77.

As for YVRDRADLNKEKPVIPAAALAGYT [D11E], the protein stability index came out at 2.5. Consider YVRDRADLNKPKPVIPAAALAGYT [D11P], for which the protein stability index was 3.65. On to YVRDRADLNKIKPVIPAAALAGYT [D11I], for which the protein stability index is 2.08. The result for YVRDRADLNKHKPVIPAAALAGYT [D11H] reads 3.35; that for YVRDRADLNKQKPVIPAAALAGYT [D11Q], 2.78. Regarding YVRDRADLNKWKPVIPAAALAGYT [D11W], the protein stability index is 2.56. The result for YVRDRADLNKDKPVIRAAALAGYT [P16R] reads 3.04; that for YVRDRADLNKDKPVINAAALAGYT [P16N], 2.33. The result for YVRDRADLNKDKPVICAAALAGYT [P16C] reads 2.57; that for YVRDRADLNKDKPVISAAALAGYT [P16S], 1.64; that for YVRDRADLNKDKPVIYAAALAGYT [P16Y], 2.98.

For the variant YVRDRADLNKDKPVIFAAALAGYT [P16F], the protein stability index came to 3.22. The result for YVRDRADLNKDKPVILAAALAGYT [P16L] reads 2.52; that for YVRDRADLNKDKPVIHAAALAGYT [P16H], 2.1; that for YVRDRADLNKDKPVIKAAALAGYT [P16K], 2.13.

YVRDRADLNKDKPVIWAAALAGYT [P16W]: the protein stability index amounted to 2.19. Turning to YVRDRADLNKDKPVIGAAALAGYT [P16G], the protein stability index was found to be 1.93.

As to YVRDRADLNKDKPVIEAAALAGYT [P16E], the protein stability index worked out at 2.05. As for YVRDRADLNKDKPVIQAAALAGYT [P16Q], the protein stability index is 2.37. For YVRDRADLNKDKPVIVAAALAGYT [P16V] the value was 2.44; for YVRDRADLNKDKPVIMAAALAGYT [P16M], 2.56; for YVRDRADLNKDKPVIIAAALAGYT [P16I], 2.23. For YVRDRADLNKDKPVITAAALAGYT [P16T] the value was 2.14; for YVRDRADLNKDKPVIAAAALAGYT [P16A], 3.14. As for YVRDRADLNKDKPVIDAAALAGYT [P16D], the protein stability index came out at 2.54. Regarding YVRDRADLCKDKPVIPAAALAGYT [N9C], the protein stability index worked out at 2.48. Turning to YVRDRADLMKDKPVIPAAALAGYT [N9M], the protein stability index is 1.96. Consider YVRDRADLKKDKPVIPAAALAGYT [N9K], for which the protein stability index came to 2.31. As for YVRDRADLSKDKPVIPAAALAGYT [N9S], the protein stability index stood at 1.77.

As for YVRDRADLFKDKPVIPAAALAGYT [N9F], the protein stability index came to 2.21. As to YVRDRADLIKDKPVIPAAALAGYT [N9I], the protein stability index was determined as 2.58. The result for YVRDRADLQKDKPVIPAAALAGYT [N9Q] reads 1.66; that for YVRDRADLTKDKPVIPAAALAGYT [N9T], 2.75.

With YVRDRADLDKDKPVIPAAALAGYT [N9D], the protein stability index was determined as 1.59. On to YVRDRADLVKDKPVIPAAALAGYT [N9V], for which the protein stability index came to 2.57.

In the case of YVRDRADLAKDKPVIPAAALAGYT [N9A], the protein stability index worked out at 2.17. The result for YVRDRADLGKDKPVIPAAALAGYT [N9G] reads 2.29. With YVRDRADLEKDKPVIPAAALAGYT [N9E], the protein stability index was found to be 1.98. For YVRDRADLWKDKPVIPAAALAGYT [N9W] the value was 3.77. The result for YVRDRADLHKDKPVIPAAALAGYT [N9H] reads 3.44; that for YVRDRADLRKDKPVIPAAALAGYT [N9R], 3.34.

YVRDRADLPKDKPVIPAAALAGYT [N9P]: the protein stability index was 2.29.

On to YVRDRADLLKDKPVIPAAALAGYT [N9L], for which the protein stability index turned out to be 2.81. For YVRDRADLYKDKPVIPAAALAGYT [N9Y] the value was 2.84.
